Assay results from patent US20110105397A1, “METHOD FOR TREATING HEART FAILURE WITH STRESSCOPIN-LIKE PEPTIDES” (priority 2009, published 2011).
Like-named read-outs stand apart in the source and are kept apart here. Values belong to the substance of their own block, whether it stands above or below them. Where no end group is shown, it is not given here. Side-chain parts run from the residue outwards. acetamide = acetamide linker between the Cys residue and the PEG

How the values were obtained:
[1] = Nonclinical pharmacokinetics in dogs; parameters: species or system dog; settings: dog, in vivo
Protocol: (§1) A sandwich immunoassay was developed using an affinity purified goat polyclonal antibody, specific to h-SCP that was pre-coated onto a microplate with integrated electrodes. h-SCP molecules present in the sample will bind to the capture polyclonal antibody coated on the plate. After washing away any unbound substances, a sulfo-tagged mouse monoclonal anti-h-SCP antibody was added. This conjugated antibody will bind to the h-SCP molecules captured on the microplate and the quantity of analyte was determined by electrochemiluminescence. The amount of signal generated is directly proportional to the h-SCP concentration in the sample or standard. The standard curve range is 3.125-1600 pg/mL with a quantifiable range from 10-800 pg/mL. A sample volume of 25 μL (in duplicate) is required for this assay. This immunoassay is specific for human and dog stresscopin and human urocortin III (h-UCN3). […] After completion of the analysis, based on a comparison of reference standards between the ELISA and HPLC method, a correction factor of 1.57 was applied to all bioanalytical data.
(§2) The nonclinical pharmacokinetics of h-SCP (SEQ ID NO:1) and pegylated stresscopin-like peptides were studied in rats, dogs, and cynomolgus monkeys (cyno). Nonclinical pharmacokinetic studies focused on characterization of IV infusion at pharmacologically relevant dose levels, supplemented with IV and SC bolus and toxicokinetic analysis.

human CRHR2 = target: T1, human CRHR2 (Homo sapiens, UniProt Q13324); assay: cAMP assay, h-CRHR2 transfected SK-N-MC cells; assay type: cell-based; settings: for EC50: read-out: pA50 (converted); for Log DR [M]: h-SCP control pA50 minus test compound pA50 within the same assay batch
T1 construct: expressed in transfected cells
T1 sequence (Q13324 1-411): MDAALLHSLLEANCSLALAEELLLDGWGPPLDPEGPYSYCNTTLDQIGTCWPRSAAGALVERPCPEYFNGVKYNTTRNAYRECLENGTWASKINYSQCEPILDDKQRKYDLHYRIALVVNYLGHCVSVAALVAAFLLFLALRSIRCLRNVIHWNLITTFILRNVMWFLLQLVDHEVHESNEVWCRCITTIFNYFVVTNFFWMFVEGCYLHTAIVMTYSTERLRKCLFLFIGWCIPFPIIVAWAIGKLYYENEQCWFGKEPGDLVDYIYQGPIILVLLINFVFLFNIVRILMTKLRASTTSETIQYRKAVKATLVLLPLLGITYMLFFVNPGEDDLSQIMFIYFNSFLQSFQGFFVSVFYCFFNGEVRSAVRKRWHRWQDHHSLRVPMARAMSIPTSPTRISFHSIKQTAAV
Outline: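 Intracellular cAMP was quantified by radioligand competition against a cAMP standard curve after HCl lysis of h-CRHR2-transfected SK-N-MC cells. These cells had been exposed to peptides from 1 pM to 1 μM for 1 h at 37 °C with IBMX. Responses were scaled to the daily h-SCP maximum and fitted to the Hill equation to give A50/pA50.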

HF dogs = assay: Single SC bolus injection in HF dogs; assay type: in vivo, dog
Protocol: After reaching a steady state plasma concentration, the heart rate remained fairly stable. […] The target plasma concentration of about 60 ng/mL is reached in about 2 hours and 10 minutes after the time point of injection, then leveling off at about 100 ng/mL after about 3, still maintaining its level at about 6 hours after injection. The stresscopin-relative concentration of 60 ng/mL and of 100 ng/mL of a SEQ ID NO:102 peptide is 600 pg/mL and 1000 pg/mL, respectively.

[2] = Nonclinical pharmacokinetics in rats; parameters: species or system rat; settings: rat, in vivo; for % F (Bioavailability) / AUC0-∞ / Tmax: sc
Protocol: as §1, §2

[3] = Table 13, cysteine mutation, N-ethylmaleimide capping, pegylation

Substance: TKFTLSLDVPTNIMNLLFNIAKAKNLRAQAAANAHCMAQI-NH2 [SEQ ID NO: 37, TKFTLSLDVPTNIMNLLFNIAKAKNLRAQAAANAHCMAQI-NH2]
EC50 (human CRHR2; [3]): 2.63 nM | Log DR [M] (human CRHR2; Table 13): 1.05

Substance: TKFTLSLDVPTNIMNLLFNIAKAKNLRAQAAANAHLMAQI-OH [SEQ ID NO: 113, TKFTLSLDVPTNIMNLLFNIAKAKNLRAQAAANAHLMAQI]
fold less potent than the amidated parent peptide (human CRHR2): approximately 200 fold | nH (human CRHR2; Table 12): 1.07 | EC50 (human CRHR2; Table 12, amidation and N-terminal deletions, normalized to maximum response to h-SCP, 3-5 replicate experiments): 79.4 nM | αmax (human CRHR2; Table 12, normalized to the maximum response to h-SCP): 107.4

Substance: TKFTLSLDVPTNIMNLLFNIAKAKNLRAQCAANAHLMAQI-NH2 [SEQ ID NO: 31, TKFTLSLDVPTNIMNLLFNIAKAKNLRAQCAANAHLMAQI-NH2]
EC50 (human CRHR2; [3]): 9.55 nM | Log DR [M] (human CRHR2; Table 13): 1.61

Now from value to substance, other results behind:

pA50 in the presence of anti-sauvagine-30 (human CRHR2; 100 nM anti-sauvagine-30, maximal response constrained to 100%): ~6.89 | agonist potency ratio to stresscopin of SEQ ID NO:1 reduced by a factor (human CRHR2; 10^(9.40-8.15)): 17.78 | nH (human CRHR2; Table 14): 1.05 | pA50 (human CRHR2; Table 14): 8.15 | αmax (human CRHR2; Table 14, % of the maximum response obtained to h-SCP): 111.1%
Substance: TKFTLSLDVPTNIMNLLFNIAKAKNLRC(-IA-PEG MW20000)QA AANAH LMAQI-NH2 (TKFTLSLDVPTNIMNLLFNIAKAKNLRC([acetamide-PEG 20 kDa])QAAANAHLMAQI-NH2) [SEQ ID NO: 102]
Vz (volume of distribution) ([1]; iv, 15 ug/kg): 0.034 ± 0.007 L/kg | % F (Bioavailability) ([1]; sc, 5 ug/kg): 71% | AUC0-∞ ([1]; sc, 5 ug/kg): 3510 ± 270 ng·h/mL | Cmax ([1]; sc, 5 ug/kg): 24.6 ± 2.6 ng/mL | Tmax ([1]; sc, 5 ug/kg): 32 ± 8 h | % F (Bioavailability) ([1]; sc, 15 ug/kg): 41% | AUC0-∞ ([1]; sc, 15 ug/kg): 6089 ± 1808 ng·h/mL | Tmax ([1]; sc, 15 ug/kg): 5 ± 1 h | heart rate (HF dogs; HF dogs, bolus SC injection 30 μg/kg): declined over the first few hours | LVEF and CO performance (HF dogs; HF dogs, bolus SC injection 30 μg/kg, up to 4 hours): significantly increased | stresscopin-relative concentration (HF dogs; of 60 ng/mL of SEQ ID NO:102 peptide): 600 pg/mL | stresscopin-relative concentration (HF dogs; of 100 ng/mL of SEQ ID NO:102 peptide): 1000 pg/mL | Vz (volume of distribution) ([2]; iv, 15 ug/kg): 0.51 ± 0.023 L/kg | % F (Bioavailability) ([2]; 15 ug/kg): 36% | AUC0-∞ ([2]; 15 ug/kg): 342 ± 107 ng·h/mL | Tmax ([2]; 15 ug/kg): 7 ± 1 h | % F (Bioavailability) ([2]; 150 ug/kg): 20% | AUC0-∞ ([2]; 150 ug/kg): 1914 ± 464 ng·h/mL | Tmax ([2]; 150 ug/kg): 6.3 ± 1.8 h

EC50 (human CRHR2; [3]): ~214 nM | Log DR [M] (human CRHR2; Table 13): >2.95
Substance: TKFTLSLDVPTNIMNLLFNIAKAKNLRAQAAANAHLCAQI-NH2 [SEQ ID NO: 38, TKFTLSLDVPTNIMNLLFNIAKAKNLRAQAAANAHLCAQI-NH2]

EC50 (human CRHR2; [3]): 0.832 nM | Log DR [M] (human CRHR2; Table 13): 0.55
Substance: TKFTLSLDVPTNIMNLLFNIAKAKNLRAQAAANAHLMACI-NH2 [SEQ ID NO: 40, TKFTLSLDVPTNIMNLLFNIAKAKNLRAQAAANAHLMACI-NH2]

EC50 (human CRHR2; [3]): 35.5 nM | Log DR [M] (human CRHR2; Table 13): 2.07
Substance: TKFTLSLDVPTNIMNLLFNIAKAKNLRAQAAANAHLMAQC-NH2 [SEQ ID NO: 41, TKFTLSLDVPTNIMNLLFNIAKAKNLRAQAAANAHLMAQC-NH2]
